The source of these data is patent US20210101932A1 (Bicycle, published 2021).

*1 amine or outer side, *2 acyl side, *3 side chain or, on linkers, in order; H or OH if unused. Bridges are numbered along the chain shown (N, C = ends). Where no end group is shown, it is not given here. [ ]: non-standard residue; d: D form. TATA = O=C(CC[*:1])N1CN(C(=O)CC[*:2])CN(C(=O)CC[*:3])C1; hArg = N=C(N)NCCCC[C@H](N)C(=O)O; Aad = N[C@@H](CCCC(=O)O)C(=O)O; Chg = N[C@H](C(=O)O)C1CCCCC1; Nle = CCCC[C@H](N)C(=O)O; Nva = CCC[C@H](N)C(=O)O; Aib = CC(C)(N)C(=O)O

The assay deals with T1, Recombinant human PD-L1 (Sino Biologicals or R&D systems), biotinylated (human, UniProt Q9NZQ7 19-238, limits assumed, biotinylated with EZ-Link Sulfo-NHS-LC-LC-Biotin).
T1 construct: captured on a streptavidin CM5 chip for SPR; also called human PD-L1 protein; Biotinylated PD-L1
T1 sequence (Q9NZQ7 19-238 limits assumed): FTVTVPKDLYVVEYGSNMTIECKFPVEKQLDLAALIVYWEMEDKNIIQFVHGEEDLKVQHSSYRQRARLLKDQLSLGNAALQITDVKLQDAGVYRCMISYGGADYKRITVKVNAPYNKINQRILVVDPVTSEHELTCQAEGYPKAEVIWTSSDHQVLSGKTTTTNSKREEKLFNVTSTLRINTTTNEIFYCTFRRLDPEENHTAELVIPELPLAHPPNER
The assay can be described thus: SPR (Biacore), biotinylated PD-L1 on streptavidin chip. Here is the method: Biacore experiments were performed to determine kₐ) (M⁻¹s⁻¹), kd (s⁻¹), KD (nM) values of monomeric peptides binding to human PD-L1 protein. […] The protein was desalted to remove uncoupled biotin using spin columns into PBS. For analysis of binding, a Biacore 3000 instrument was used utilizing a CM5 sensor chip (GE Healthcare). Streptavidin was immobilized on the chip using standard amine-coupling chemistry at 25° C. with HBS-N (10 mM HEPES, 0.15 M NaCl, pH 7.4) as the running buffer. The carboxymethyl dextran surface was activated with a 12 min injection of a 1:1 ratio of 0.4 M 1-ethyl-3-(3-dimethylaminopropyl) carbodiimide hydrochloride (EDC)/0.1 M N-hydroxy succinimide (NHS) at a flow rate of 10 μl/min. For capture of streptavidin, protein was diluted to 0.1 mg/ml in 10 mM sodium acetate (pH 4.5) and captured by injecting 70 μl onto the activated chip surface. Residual activated groups were blocked with a 7 min injection of 1 M ethanolamine (pH 8.5). Biotinylated PD-L1 stock was diluted 1:100 in HBS-N and captured on one flow cell at 5 μl/min to a level of 1000-1300 RU. Buffer was changed to PBS/0.05% Tween 20 and a dilution series of the peptides was prepared in this buffer with a final DMSO concentration of 0.5%. The top concentrations were 200 nM or 500 nM with 6 2-fold dilutions. The SPR analysis was run at 25° C. at a flow rate of Flow rate 50 μl/min with 60 seconds association and 400 seconds disassociation. Data were corrected for DMSO excluded volume effects. All data were double-referenced for blank injections and reference surface using standard processing procedures and data processing and kinetic fitting were performed using Scrubber software, version 2.0c (Biologic Software). Data were fitted using mass transport model allowing for mass transport effects where appropriate.

SDKCSAGWLTMCQKXHLCA ([Nle] as in SDKCSAGWLTMCQK[Nle]HLCA; Ci, Cii, Ciii cyclised on TATA) [BCY10071]: the Kd was 58.2 nM.

B1: BCY11824 (peptide)
peptide: Ac-KCS[Aad]GWLTMCLKLHLC
modifications: linker 2-10-16 via TATA; not fully specified (C-terminus); printed as Ac-KCS[Aad]GWLTMCLKLHLC
Consider B1, for which the Kd is 60 nM. As for Ac-EKCS[Aad]GWLTMCLKLHLC (linker 3-11-17 via TATA) [BCY11826], the Kd amounted to 18.2 nM. As for SDKCSAGWLTMC[Chg]KLHLCA (linker 4-12-18 via TATA) [BCY10066], the figure is 14.4 nM. Turning to SDKCS[Nle]GWLTMCQKLHLCA (linker 4-12-18 via TATA) [BCY10062], the Kd was found to be 23 nM. As for SDKCSAGWLTMCQKL[Aib]LCA (linker 4-12-18 via TATA) [BCY10073], the figure is 15.8 nM.

B2: BCY11853 (peptide)
peptide: Ac-DKCS[Aad]GWLTMCQKLHLCPSH-OH
modifications: linker 3-11-17 via TATA
SMILES: CSCC[C@@H]1NC(=O)[C@H]([C@@H](C)O)NC(=O)[C@H](CC(C)C)NC(=O)[C@H](Cc2c[nH]c3ccccc23)NC(=O)CNC(=O)[C@H](CCCC(=O)O)NC(=O)[C@H](CO)NC(=O)[C@@H](NC(=O)[C@H](CCCCN)NC(=O)[C@H](CC(=O)O)NC(C)=O)CSCCC(=O)N2CN3CN(C2)C(=O)CCSC[C@@H](C(=O)N2CCC[C@H]2C(=O)N[C@@H](CO)C(=O)N[C@@H](Cc2c[nH]cn2)C(=O)O)NC(=O)[C@H](CC(C)C)NC(=O)[C@H](Cc2c[nH]cn2)NC(=O)[C@H](CC(C)C)NC(=O)[C@H](CCCCN)NC(=O)[C@H](CCC(N)=O)NC(=O)[C@H](CSCCC3=O)NC1=O
In the case of B2, the Kd is 17.6 nM.

For SDKCSAGWLTXCQKLHLCA ([Nle] as in SDKCSAGWLT[Nle]CQKLHLCA; Ci, Cii, Ciii cyclised on TATA) [BCY10058], the Kd amounted to 59.7 nM. To SDKCSXGWLTMCQKLHLCA ([Abu] as in SDKCS[Abu]GWLTMCQKLHLCA; Ci, Cii, Ciii cyclised on TATA) [BCY10055] belongs 27.9 nM; to SDXCSAGWLTMCQKLHLCA ([HArg] (homoarginine) = X at chain position 3; Ci, Cii, Ciii cyclised on TATA) [BCY10052], 22.3 nM; to SDKCSAGWLTMCQK[Nva]HLCA (linker 4-12-18 via TATA) [BCY10084], 43.2 nM.

B3: BCY10960 (peptide)
peptide: Ac-SDKCSEGWLTMCQKLHLC
modifications: linker 4-12-18 via TATA; not fully specified (C-terminus); printed as [Ac]SDKCSEGWLTMCQKLHLC
For the molecule B3, the Kd was 9.94 nM.

B4: BCY11827 (peptide)
peptide: Ac-[hArg]CS[Aad]GWLTMCLKLHLC
modifications: linker 2-10-16 via TATA; not fully specified (C-terminus); printed as Ac-[HArg]CS[Aad]GWLTMCLKLHLC
For B4, the Kd was found to be 30 nM. Turning to SDKCSXGWLTMCQKLHLCA ([Aib] as in SDKCS[Aib]GWLTMCQKLHLCA; Ci, Cii, Ciii cyclised on TATA) [BCY10054], the Kd stood at 31.2 nM.

For the molecule Ac-SDKCS[Aad]GWLTMCLKLHLCA (linker 4-12-18 via TATA) [BCY11828], the Kd was 16.6 nM. As for SDKCSAGWLTMCQKLH[Nva]CA (linker 4-12-18 via TATA) [BCY10083], the figure is 75 nM. As for SDKCSAGWLTMCQKLHXCA ([Nle] as in SDKCSAGWLTMCQKLH[Nle]CA; Ci, Cii, Ciii cyclised on TATA) [BCY10074], the figure is 36.1 nM.

For the molecule Ac-SEKCS[Aad]GWLTMCLKLHLC (linker 4-12-18 via TATA) [BCY11825], the Kd was found to be 28.8 nM. As for SDKCSAGWLTMCQ[Nle]LHLCA (linker 4-12-18 via TATA) [BCY10068], the figure is 54.5 nM. With Ac-SEKCS[Aad]GWLTMCLKLHLCPSH (linker 4-12-18 via TATA) [BCY11831], the Kd came to 13.2 nM.
